Measurements as given in patent US12281155 (INSTITUT PASTEUR, dated 2025).
Numbering of substitutions follows the chain as printed.

B1: SPK002M C1 antibody (antibody, human IgG1, kappa, V domains shown)
VH: EVQLVESGGGLIQPGGSLRLSCAASIITVTSNYMSWVRQAPGKGLEWVSVAYPGGSTFYADSVKGRFTISTDNSKNTLYLQMNSLRAEDTAVYYCARDLVVYGMDVWGQGTTVTVSS
VL: EIVLTQSPGTLSLSPGERATLSCRASQSVSDSYLAWYQQKPGQAPRLLIYGASSRATGIPGRFSGSGSGTDFTLTISRLEPEDFAVYYCQYGVTFGGGTKVEIKR
B2: SPK002M C2 antibody (antibody, human IgG1, kappa, V domains shown)
VH: B1 VH
VL: B1 VL with D31S, Y91Q
B3: SPK002M C3 antibody (antibody, human IgG1, kappa, V domains shown)
VH: B1 VH with A51I
VL: B1 VL with D31S, Y91Q

Target: Spike protein of SARS-CoV-2 strain D614G (hCoV-19/France/GE1973/2020) (SARS-CoV-2, UniProt P0DTC2 14-1273)
Experiment: cell-based or functional assay

Row | Binder | IC50, S-Fuse neutralization of live virus
1 | B1 | 0.08 µg/mL
2 | B2 | 0.06 µg/mL
3 | B3 | 0.08 µg/mL

Target: Spike protein of SARS-CoV-2 strain EG.5.1 (hCoV-19/France/GES-IPP15954/2023) (SARS-CoV-2)
Experiment: cell-based or functional assay

Row | Binder | IC50, S-Fuse neutralization of live virus
4 | B1 | 0.16 µg/mL
5 | B2 | 2.16 µg/mL
6 | B3 | 6.08 µg/mL

Target: Spike protein of SARS-CoV-2 strain XBB.1.16 (hCoV-19/France/GES-IPP7712/2023) (SARS-CoV-2)
Experiment: cell-based or functional assay

Row | Binder | IC50, S-Fuse neutralization of live virus
7 | B1 | 0.12 µg/mL
8 | B2 | 0.21 µg/mL
9 | B3 | 0.3 µg/mL

Target: Spike protein of SARS-CoV-2 strain XBB.1.5 (GISAID EPI_ISL_16353849) (SARS-CoV-2)
Experiment: cell-based or functional assay

Row | Binder | IC50, S-Fuse neutralization of live virus
10 | B1 | 0.07 µg/mL
11 | B2 | 0.14 µg/mL
12 | B3 | 0.13 µg/mL

Target: Spike protein of SARS-CoV-2 strain BA.2.86 (hCoV-19/France/IDF-IPP17625/2023) (SARS-CoV-2)
Experiment: cell-based or functional assay

Row | Binder | IC50, S-Fuse neutralization of live virus
13 | B1 | 0.03 µg/mL
14 | B2 | 0.05 µg/mL
15 | B3 | 0.33 µg/mL

Target: Spike protein of SARS-CoV-2 strain JN.1 (hCoV-19/France/HDF-IPP21391/2023) (SARS-CoV-2)
Experiment: cell-based or functional assay

Row | Binder | IC50, S-Fuse neutralization of live virus
16 | B1 | 1.73 µg/mL
17 | B2 | 53.8 µg/mL
18 | B3 | 60.1 µg/mL

Target: T1, recombinant SARS-CoV-2 Spike RBD domain, JN-1 variant (SARS-CoV-2)
T1 construct: also called RBD JN-1 variant
Experiment: ELISA on coated RBD

Row | Binder | Binding AUC
19 | B1 | 39
20 | B2 | 33
21 | B3 | 29

Target: T2, recombinant SARS-CoV-2 Spike RBD domain, XBB.1.16 variant (SARS-CoV-2)
T2 construct: also called RBD XBB.1.16 variant
Experiment: ELISA on coated RBD

Row | Binder | Binding AUC
22 | B1 | 29
23 | B2 | 29
24 | B3 | 31

Target: T3, recombinant SARS-CoV-2 Spike RBD domain, BA.2.75.2 variant (SARS-CoV-2)
T3 construct: also called RBD BA.2.75.2 variant
Experiment: ELISA on coated RBD

Row | Binder | Binding AUC
25 | B1 | 28
26 | B2 | 28
27 | B3 | 29

Target: T4, recombinant SARS-CoV-2 Spike RBD domain, BA.4/5 variant (SARS-CoV-2)
T4 construct: also called RBD BA.4/5 variant
Experiment: ELISA on coated RBD

Row | Binder | Binding AUC
28 | B1 | 30
29 | B2 | 30
30 | B3 | 32

Target: T5, recombinant SARS-CoV-2 Spike RBD domain, BQ.1.1 variant (SARS-CoV-2)
T5 construct: also called RBD BQ.1.1. variant
Experiment: ELISA on coated RBD

Row | Binder | Binding AUC
31 | B1 | 31
32 | B2 | 31
33 | B3 | 31

Target: T6, recombinant SARS-CoV-2 Spike RBD domain, Delta variant (SARS-CoV-2)
T6 construct: also called RBD Delta variant
Experiment: ELISA on coated RBD

Row | Binder | Binding AUC
34 | B1 | 32
35 | B2 | 32
36 | B3 | 33

Target: T7, recombinant SARS-CoV-2 Spike RBD domain, EG.5 variant (SARS-CoV-2)
T7 construct: also called RBD EG.5.1 variant
Experiment: ELISA on coated RBD

Row | Binder | Binding AUC
37 | B1 | 32
38 | B2 | 32
39 | B3 | 33

Target: T8, recombinant SARS-CoV-2 Spike RBD domain, BA.2.86 variant (SARS-CoV-2)
T8 construct: also called RBD BA.2.86 variant
Experiment: ELISA on coated RBD

Row | Binder | Binding AUC
40 | B1 | 38
41 | B2 | 38
42 | B3 | 38

Target: T9, recombinant SARS-CoV-2 Spike RBD domain, XBB.1.5 variant (SARS-CoV-2)
T9 construct: also called RBD XBB.1.5 variant
Experiment: ELISA on coated RBD

Row | Binder | Binding AUC
43 | B1 | 31
44 | B2 | 31
45 | B3 | 32

Target: T10, recombinant SARS-CoV-2 Spike RBD domain, BA.2 variant (SARS-CoV-2)
T10 construct: also called RBD BA.2. variant
Experiment: ELISA on coated RBD

Row | Binder | Binding AUC
46 | B1 | 28
47 | B2 | 23
48 | B3 | 19

Target: T1, recombinant SARS-CoV-2 Spike RBD …
Experiment: competition ELISA, blocking of RBD binding to ACE2 ectodomain

Row | Binder | Blocking %
49 | B1 | 83%
50 | B2 | 28%
51 | B3 | 0%

Target: T2, recombinant SARS-CoV-2 Spike RBD …
Experiment: as above

Row | Binder | Blocking %
52 | B1 | 96%
53 | B2 | 93%
54 | B3 | 90%

Target: T3, recombinant SARS-CoV-2 Spike RBD …
Experiment: as above

Row | Binder | Blocking %
55 | B1 | 95%
56 | B2 | 92%
57 | B3 | 94%

Target: T4, recombinant SARS-CoV-2 Spike RBD …
Experiment: as above

Row | Binder | Blocking %
58 | B1 | 97%
59 | B2 | 93%
60 | B3 | 94%

Target: T5, recombinant SARS-CoV-2 Spike RBD …
Experiment: as above

Row | Binder | Blocking %
61 | B1 | 97%
62 | B2 | 95%
63 | B3 | 94%

Target: T6, recombinant SARS-CoV-2 Spike RBD …
Experiment: as above

Row | Binder | Blocking %
64 | B1 | 94%
65 | B2 | 90%
66 | B3 | 95%

Target: T7, recombinant SARS-CoV-2 Spike RBD …
Experiment: as above

Row | Binder | Blocking %
67 | B1 | 96%
68 | B2 | 89%
69 | B3 | 81%

Target: T8, recombinant SARS-CoV-2 Spike RBD …
Experiment: as above

Row | Binder | Blocking %
70 | B1 | 96%
71 | B2 | 91%
72 | B3 | 90%

Target: T9, recombinant SARS-CoV-2 Spike RBD …
Experiment: as above

Row | Binder | Blocking %
73 | B1 | 96%
74 | B2 | 93%
75 | B3 | 90%

Target: T10, recombinant SARS-CoV-2 Spike RBD …
Experiment: as above

Row | Binder | Blocking %
76 | B1 | 95%
77 | B2 | 93%
78 | B3 | 94%
